The source of these data is publication PMC9130890 (Advanced Science, 2022).

One assay addresses HIV-1 BG505 Env trimer (HIV-1 (strain BG505), UniProt Q2N0S6).
The target of assay [1] is HIV-1 C1080 Env trimer, stabilized in the prefusion-closed state (HIV-1 (CRF01_AE strain C1080)).

B1: J038 (antibody, V domains shown)
VH: QLHLQESGPGLVRPSETLSLTCDVSGGAFNDAYCSWIRRFPGGGLEWIGRISGRDGYVESNPALTGRVTMSIDATWKKIVLRLTSMTASDTATYFCAGETPEDDFGYYQPYFKTWGQGLGVTVSS
VL: DIQLIQSPSSVSASLGDRVTITCRSTQGIGSDLAWYQATPGTAPKLLIYNSFALHKGVPSRFSGSGSGTEFSLTITGLQPEDFATYYCQHYRRLPLTFGGGTNIEVK
On to B1, for which the binding result (with HIV-1 BG505 Env trimer; in assay [1]) was “binds” each time.
